In patent US20040018558A1:

What was measured:
[1] = biological target: light-activated rhodopsin (bovine rod outer segment membranes) (bovine) (UniProt P02699); assay: ELISA, MBP fusion protein on immobilised light-activated rhodopsin
[2] = biological target: human thrombin receptor (PAR1) (human) (UniProt P25116); assay: ELISA, purified MBP-Gαq on purified reconstituted PAR1 with thrombin receptor activating peptide
Chain of human thrombin receptor (PAR1) (human) (P25116 42-425): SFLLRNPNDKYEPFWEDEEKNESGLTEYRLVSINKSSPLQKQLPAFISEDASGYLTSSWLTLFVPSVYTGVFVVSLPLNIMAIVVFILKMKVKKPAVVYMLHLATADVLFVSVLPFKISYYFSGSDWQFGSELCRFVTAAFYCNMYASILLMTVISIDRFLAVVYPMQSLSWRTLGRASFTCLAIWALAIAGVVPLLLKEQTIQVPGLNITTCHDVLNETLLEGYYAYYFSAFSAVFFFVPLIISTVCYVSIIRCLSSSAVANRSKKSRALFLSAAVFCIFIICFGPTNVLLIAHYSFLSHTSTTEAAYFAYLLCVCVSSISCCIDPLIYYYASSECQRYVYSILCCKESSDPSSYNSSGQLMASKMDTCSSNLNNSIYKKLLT

Chain of light-activated rhodopsin (bovine rod outer segment membranes) (bovine) (P02699 whole entry, the tested form may be a part): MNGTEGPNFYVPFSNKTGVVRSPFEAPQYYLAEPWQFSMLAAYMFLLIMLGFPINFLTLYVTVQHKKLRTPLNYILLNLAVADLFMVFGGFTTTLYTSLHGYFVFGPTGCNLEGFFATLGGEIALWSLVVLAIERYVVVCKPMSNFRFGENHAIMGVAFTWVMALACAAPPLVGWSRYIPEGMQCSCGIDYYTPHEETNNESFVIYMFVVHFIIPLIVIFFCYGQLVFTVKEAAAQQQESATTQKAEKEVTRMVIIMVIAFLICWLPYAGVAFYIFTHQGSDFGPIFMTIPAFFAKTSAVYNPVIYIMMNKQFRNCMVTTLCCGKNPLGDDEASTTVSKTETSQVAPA

IC50 [1] | IC50 [2] | Substance
6 µM |  | MBP-Gαt340-350K341R fusion protein (pELM17)
 | 0.214 µM | maltose binding protein-Gαq (MBP-Gαq), native Gq peptide fusion
